“Also recorded” adds a separate entry of the source.
Experiments:
Type in all cases: cell-based
[1] = system: E. coli 06; assay: Microbicidal microplate-droplet assay, E. coli; details: 1 mg/ml, lactate 0.2% and lactate free solution, 2 h
Method: (§1) The bacterial strains S. aureus 1800 (CCUG 1800), E. coli 06, and the yeast C. albicans (ATCC 64549) have been used in the microplate assay. All microorganisms were cultured in brain heart infusion medium (BHI) on a shaker over night at 37° C. A volume of the culture was transferred to a new tube with BHI and incubated for two more h on the shaker. The bacteria were harvested in the log phase, washed once and thereafter suspended in the broth used for the microplate assay. The suspension was adjusted spectrophotometrically and diluted to a concentration of approximately 4×10^6 cells per ml at 650 nm. Washed cells were suspended in 0.2% BP (pH 7.0) or BHI medium diluted 1/10 (0.34%, pH 6.7-6.9) (Difco, USA). The concentration of bacterial or fungal cells was spectrophotometrically adjusted. LF or peptide, serially diluted in BHIdil or BP by twofold steps (unless otherwise stated), were added in triplicate to the wells of a microtiterplate (200 ul per well). The bacterial or yeast cell solutions were added in 10 ul volumes to give a final concentration of approximately 2×10^5 cells per ml. The concentration of the stock solution was always checked by viable counts. The microplate was incubated at 37° C. in a humid chamber for 2 h unless otherwise stated. Five ul were taken from each well and added as a drop onto a blood agar plate and incubated over night at 37° C. In some experiments more thorough viable counts were performed and the killing was expressed as remaining colony forming units in relation to the inoculum. The lower limit for detection of microorganisms was 200 CFU/ml. The antimicrobial activity of human LF was analysed by the microbicidal assay described above. Different microbes such as C. albicans, E. coli and S. aureus were analysed with respect to their survival in lactate (not containing the inert gel base, which makes the gel unsuitable for the microbicidal assay) containing LF.

[2] = system: C. albicans (ATCC 64549); assay: Microbicidal microplate assay (viable counts), C. albicans
Method: as §1, with “LF. […] LF was incubated together with various concentrations of lactate diluted in 0.2% bactopeptone and C. albicans for 2 h. Thereafter each solution was analysed for viable counts.” for “LF.”

[3] = system: L. jensenii; assay: Survival of L. jensenii in lactate with LF; details: 2 mg/ml, lactate 0.2%, 2 h
Method: (§2) L. gasseri and L. jensenii were cultured on chocolate-agar plates for 24 h in 5% CO2/95% air. They were thereafter harvested and added to BHI (0.34%). After washing the bacterial solutions were adjusted spectrophotometrically and diluted to 8×10^6 bacteria/ml.
(§3) Washed cells were suspended in 0.2% BP (pH 7.0) or BHI medium diluted 1/10 (0.34%, pH 6.7-6.9) (Difco, USA). The concentration of bacterial or fungal cells was spectrophotometrically adjusted. LF or peptide, serially diluted in BHIdil or BP by twofold steps (unless otherwise stated), were added in triplicate to the wells of a microtiterplate (200 ul per well). The bacterial or yeast cell solutions were added in 10 ul volumes to give a final concentration of approximately 2×10^5 cells per ml. The concentration of the stock solution was always checked by viable counts. The microplate was incubated at 37° C. in a humid chamber for 2 h unless otherwise stated. Five ul were taken from each well and added as a drop onto a blood agar plate and incubated over night at 37° C. In some experiments more thorough viable counts were performed and the killing was expressed as remaining colony forming units in relation to the inoculum. The lower limit for detection of microorganisms was 200 CFU/ml.
(§4) L. gasseri survived better in the assay system than did L. jensenii. Undiluted lactate (5%) affected the survival of Lactobacillus.

[4] = system: L. gasseri; assay: Survival of L. gasseri in lactate with LF; details: rHLF 2 mg/ml in lactate, 2 h of incubation
Method: as §2, §3, §4

B1: rHLF: Recombinant human LF obtained from Agennix (protein, UniProt P02788 20-710, looked up)
Lactotransferrin: GRRRSVQWCAVSQPEATKCFQWQRNMRKVRGPPVSCIKRDSPIQCIQAIAENRADAVTLDGGFIYEAGLAPYKLRPVAAEVYGTERQPRTHYYAVAVVKKGGSFQLNELQGLKSCHTGLRRTAGWNVPIGTLRPFLNWTGPPEPIEAAVARFFSASCVPGADKGQFPNLCRLCAGTGENKCAFSSQEPYFSYSGAFKCLRDGAGDVAFIRESTVFEDLSDEAERDEYELLCPDNTRKPVDKFKDCHLARVPSHAVVARSVNGKEDAIWNLLRQAQEKFGKDKSPKFQLFGSPSGQKDLLFKDSAIGFSRVPPRIDSGLYLGSGYFTAIQNLRKSEEEVAARRARVVWCAVGEQELRKCNQWSGLSEGSVTCSSASTTEDCIALVLKGEADAMSLDGGYVYTAGKCGLVPVLAENYKSQQSSDPDPNCVDRPVEGYLAVAVVRRSDTSLTWNSVKGKKSCHTAVDRTAGWNIPMGLLFNQTGSCKFDEYFSQSCAPGSDPRSNLCALCIGDEQGENKCVPNSNERYYGYTGAFRCLAENAGDVAFVKDVTVLQNTDGNNNEAWAKDLKLADFALLCLDGKRKPVTEARSCHLAMAPNHAVVSRMDKVERLKQVLLHQQAKFGRNGSDCPDKFCLFQSETKNLLFNDNTECLARLHGKTTYEKYLGPQYVAGITNLKKCSTSPLLEACEFLRK
killing of E. coli, rHLF compared with LF [1]: the most effective of the two LFs
fungicidal effect on C. albicans, rHLF in comparison to LF ([2]; lactate 0.2%, 2 and 20 h): the stronger effect of rHLF was observed only after a longer incubation time
fungicidal effect on C. albicans, rHLF in comparison to LF ([2]; lactate 1%, higher LF concentrations): stronger effect
killing of the inoculate ([2]; rHLF 0.5-1.0 mg/ml, lactate 1%, 2 h): ~99%
resistance of L. jensenii to the antibacterial effect [3]: more resistant
effect on L. gasseri survival beyond that of lactate [4]: no additional effects; also recorded: survived equally well
